In publication PMC9082315 (Frontiers in Immunology, 2022):

Target: monomeric SARS-CoV-2 RBD with Flag peptide and 8xHis-tag (RBD-FH) (SARS-CoV-2, WA1 (Wuhan-like), UniProt P0DTC2)
Test: SPR
Settings: both partners purified

| Binder | Kd [nM] | koff [s⁻¹] | kon [M⁻¹ s⁻¹] |
| --- | --- | --- | --- |
| 1.26 Nb (VHH) VHH: QVQLVESGGGLVQAGGSLRLSCAATGYTWSSVCMGWFRQAPGKEREGVAGIPSGRNRPYYADSVKGRFTISQDNAKNAVFLLMNSLKPEDTAIYYCAPCSAPHDPEYNYWGQGTQVTVSS | 0.26 | 0.000624 | 2.44e+06 |
| 2.20 Nb (VHH) VHH: QVQLVESGGGSVQAGGSLRLSCAASGYTYNNYYMGWFRQAPGKEREGVAAINSDGLDTYVADSVKGRFTISRDNAKDTVHLQMNSLKPEDTAIYSCATGRTVYYSGYDFRLSVDDYWGQGTQVTVSS | 0.77 | 0.00101 | 1.3e+06 |
| 1.29 Nb (VHH) VHH: QVQLVESGGGSVQAGGSLRLSCAASGYTINTDAVAWFRQAPGKGDERVAVIYTGSGNTNYADSVKGRFTISQDNAKNTVYLQMNSLKPEDTALYYCASGYYGASGYDFNNWGQGTQVTVSS | 12.9 | 0.00614 | 476000 |
| 1.10 Nb (VHH) VHH: QVQLVESGGGSVQAGGSLRLSCAASGYTYSTCRKGWYRQAPGKERELVASITADGATYYLDSVKGRLTISQDNAKNTVYLQMNSLKPEDTAVYYCAASVKDFTCTFNSWGQGTQVTVSS | 3.96 | 0.00137 | 345000 |

Target: monomeric SARS-CoV-2 RBD (S residues 332-534) with Flag peptide and 8xHis-tag (SARS-CoV-2, WA1 (Wuhan-like), UniProt P0DTC2, biotin (only in the flow cytometry on bacteria))
Test: SPR
Settings: both partners purified

| Binder | Kd [nM] |
| --- | --- |
| Nb 1.26, monomeric nanobody (VHH) VHH: QVQLVESGGGLVQAGGSLRLSCAATGYTWSSVCMGWFRQAPGKEREGVAGIPSGRNRPYYADSVKGRFTISQDNAKNAVFLLMNSLKPEDTAIYYCAPCSAPHDPEYNYWGQGTQVTVSS | ~0.3 |
| Nb 1.29, monomeric nanobody (VHH) VHH: QVQLVESGGGSVQAGGSLRLSCAASGYTINTDAVAWFRQAPGKGDERVAVIYTGSGNTNYADSVKGRFTISQDNAKNTVYLQMNSLKPEDTALYYCASGYYGASGYDFNNWGQGTQVTVSS | 13 |

Target: T1, human fibrinogen (control antigen) (Homo sapiens, UniProt P02671;P02675;P02679-2, biotin | biotin | biotin)
T1 construct: also called human fribrinogen
Test: flow cytometry on cells
Settings: one partner purified

T1 sequence (P02671 36-866, chain 1 of 3): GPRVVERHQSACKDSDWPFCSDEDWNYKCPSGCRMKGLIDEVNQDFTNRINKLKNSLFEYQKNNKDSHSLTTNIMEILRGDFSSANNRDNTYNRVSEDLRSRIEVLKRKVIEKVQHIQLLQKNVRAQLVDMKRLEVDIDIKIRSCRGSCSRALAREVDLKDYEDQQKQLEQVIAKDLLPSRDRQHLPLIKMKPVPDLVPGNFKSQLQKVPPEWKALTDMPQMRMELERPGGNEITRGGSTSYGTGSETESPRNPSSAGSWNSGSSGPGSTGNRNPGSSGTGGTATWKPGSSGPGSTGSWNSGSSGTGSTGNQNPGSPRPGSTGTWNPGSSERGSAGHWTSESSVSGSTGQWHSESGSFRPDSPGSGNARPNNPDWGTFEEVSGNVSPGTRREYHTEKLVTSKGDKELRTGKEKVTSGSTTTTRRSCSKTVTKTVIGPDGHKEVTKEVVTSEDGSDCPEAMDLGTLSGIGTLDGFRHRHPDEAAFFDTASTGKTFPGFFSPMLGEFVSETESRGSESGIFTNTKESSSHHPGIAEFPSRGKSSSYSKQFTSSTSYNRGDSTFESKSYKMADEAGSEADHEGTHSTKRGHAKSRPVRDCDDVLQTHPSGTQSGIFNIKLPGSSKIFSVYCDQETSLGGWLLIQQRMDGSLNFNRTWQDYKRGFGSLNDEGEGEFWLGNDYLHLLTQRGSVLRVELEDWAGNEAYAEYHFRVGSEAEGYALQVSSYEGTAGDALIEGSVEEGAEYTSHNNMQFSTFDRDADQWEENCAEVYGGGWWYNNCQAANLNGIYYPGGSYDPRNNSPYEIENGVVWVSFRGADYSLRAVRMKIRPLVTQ
T1 sequence (P02675 45-491, chain 2 of 3): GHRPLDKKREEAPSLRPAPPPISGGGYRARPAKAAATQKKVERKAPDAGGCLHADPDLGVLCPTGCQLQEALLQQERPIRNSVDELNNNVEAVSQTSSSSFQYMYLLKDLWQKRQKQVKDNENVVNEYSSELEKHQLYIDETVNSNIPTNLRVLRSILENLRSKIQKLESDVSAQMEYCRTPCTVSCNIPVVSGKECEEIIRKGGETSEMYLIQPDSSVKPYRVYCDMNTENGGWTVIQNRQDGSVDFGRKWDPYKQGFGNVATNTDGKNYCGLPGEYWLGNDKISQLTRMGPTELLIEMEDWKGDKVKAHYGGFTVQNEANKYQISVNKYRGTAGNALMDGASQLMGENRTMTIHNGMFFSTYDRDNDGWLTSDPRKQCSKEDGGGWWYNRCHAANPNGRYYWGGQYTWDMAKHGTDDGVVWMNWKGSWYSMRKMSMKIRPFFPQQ
T1 sequence (P02679 27-453, chain 3 of 3): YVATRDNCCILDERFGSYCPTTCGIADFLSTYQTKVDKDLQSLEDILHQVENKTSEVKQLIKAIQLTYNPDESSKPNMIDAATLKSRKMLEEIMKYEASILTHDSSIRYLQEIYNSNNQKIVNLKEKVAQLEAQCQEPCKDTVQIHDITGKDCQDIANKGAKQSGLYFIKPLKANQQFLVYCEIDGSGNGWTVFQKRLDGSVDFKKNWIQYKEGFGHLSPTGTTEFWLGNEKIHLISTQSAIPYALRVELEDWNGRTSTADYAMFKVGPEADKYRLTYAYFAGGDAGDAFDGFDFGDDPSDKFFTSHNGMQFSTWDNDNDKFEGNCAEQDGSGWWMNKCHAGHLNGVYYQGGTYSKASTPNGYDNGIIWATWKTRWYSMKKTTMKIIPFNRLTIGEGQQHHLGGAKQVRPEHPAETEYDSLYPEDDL

| Binder | binding result |
| --- | --- |
| Nb 1.26 displayed on E. coli as intimin-Nb-myc tag fusion (VHH) VHH: QVQLVESGGGLVQAGGSLRLSCAATGYTWSSVCMGWFRQAPGKEREGVAGIPSGRNRPYYADSVKGRFTISQDNAKNAVFLLMNSLKPEDTAIYYCAPCSAPHDPEYNYWGQGTQVTVSS | no binding (tested: 100 nM) |
| Nb 2.20 displayed on E. coli as intimin-Nb-myc tag fusion (VHH) VHH: QVQLVESGGGSVQAGGSLRLSCAASGYTYNNYYMGWFRQAPGKEREGVAAINSDGLDTYVADSVKGRFTISRDNAKDTVHLQMNSLKPEDTAIYSCATGRTVYYSGYDFRLSVDDYWGQGTQVTVSS | no binding (tested: 100 nM) |
| Nb 1.28 displayed on E. coli as intimin-Nb-myc tag fusion (VHH) VHH: QVQLVESGGGSVQAGGSLRLSCAASGLTNIRCHMAWYRQAPGKGRELVSRITTNGVTDYADSVKERFTISRHNAENTVYLQMNSLKPEDTAVYYCAACGFSTTTYWGQGTQVTVSS | no binding (tested: 100 nM) |
| Nb 2.15 displayed on E. coli as intimin-Nb-myc tag fusion (VHH) VHH: QVQLVESGGGSVQAGGSLKLSCAASGYASWARKCIGWFRQAPGQEREGVAAIFDFDGSTYYSDSVKGRFTISGDNAKNTVSLQMNSLLPKDTAVYYCTVAFGTCDNWYRGRGDYWGQGTQVTVSS | no binding (tested: 100 nM) |
| Nb 1.29 displayed on E. coli as intimin-Nb-myc tag fusion (VHH) VHH: QVQLVESGGGSVQAGGSLRLSCAASGYTINTDAVAWFRQAPGKGDERVAVIYTGSGNTNYADSVKGRFTISQDNAKNTVYLQMNSLKPEDTALYYCASGYYGASGYDFNNWGQGTQVTVSS | no binding (tested: 100 nM) |
| Nb 2.11 displayed on E. coli as intimin-Nb-myc tag fusion (VHH) VHH: QVQLVESGGGSVQAGGSLRLSCAASGDASNRKCVSWFRRAPGKEREGVALIFPVGSSTAYADSVKGRFTISQDSAKDTVYLQMNNLKPEDSGTYYCAAVSWGGRCNLETQTVTFWGQGTQVTVSS | no binding (tested: 100 nM) |
| Nb 1.10 displayed on E. coli as intimin-Nb-myc tag fusion (VHH) VHH: QVQLVESGGGSVQAGGSLRLSCAASGYTYSTCRKGWYRQAPGKERELVASITADGATYYLDSVKGRLTISQDNAKNTVYLQMNSLKPEDTAVYYCAASVKDFTCTFNSWGQGTQVTVSS | no binding (tested: 100 nM) |
| Nb 1.16 displayed on E. coli as intimin-Nb-myc tag fusion (VHH) VHH: QVQLVESGGGSVQAGGSLRLSCAASGNTSKRKCVGWFRRAPGKEREGVTLIYTVGGSTVYADSVKGRFTISQDNAKDTVYLQMNSLKPEDSAMYYCAAESWGRQCNLETHRFTFWGQGTQVTVSS | no binding (tested: 100 nM) |
| Nb 2.1 displayed on E. coli as intimin-Nb-myc tag fusion (VHH) VHH: QVQLVESGGGSVQAGGSLRLSCAAFGATISSAHMGWFRQAPGKEREGVAFRYTDGSSTYYTTSVRGRFTISQDNAKNTVYLQMNSLKPEDTAMYYCASNPSWGRLVGGQYNNWGQGTQITVSS | no binding (tested: 100 nM) |
